Here are results for 17 molecules from PMC12423313, “Protein-based tools for the detection and characterisation of Oropouche virus infection” (EMBO Molecular Medicine, 2025).

T1: OROV nucleoprotein (N), recombinant, strain BeAn19991 (Oropouche virus strain BeAn19991)
T1 chain: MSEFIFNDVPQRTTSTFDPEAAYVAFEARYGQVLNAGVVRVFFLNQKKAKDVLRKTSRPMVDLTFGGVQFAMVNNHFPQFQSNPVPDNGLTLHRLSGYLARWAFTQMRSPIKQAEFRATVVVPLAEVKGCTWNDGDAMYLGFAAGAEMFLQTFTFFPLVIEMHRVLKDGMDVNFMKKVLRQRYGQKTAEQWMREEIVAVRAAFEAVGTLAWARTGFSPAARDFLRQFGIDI

T2: OROV nucleoprotein (N) of strain BeAn19991, native, in virus stocks and infected cells (Oropouche virus strain BeAn19991)
T2 construct: N protein of Oropouche virus strain BeAn19991, GenBank AJE24680.1, as made by the virus; also called OROV BeAn19991
T2 chain: T1 chain

B1: biotinylated nanobody NpA2 (AviTag-His9) (VHH)
VHH: QVQLVESGGGLVQPGGSVRLSCAASGGIFSFNAMAWYRQAPGKQRDIVALIANDGNTNYADSVKGRFTISRDNAKNTVYLQMNSLQPEDTAVYYCSALRRGAQDWGQGTQVTVSS
notes: VHH NpA2 from an immunised llama; also called bNpA2; OROV Np Nb A2 BAP H9; not shown: AviTag, C-terminal, kept
B2: biotinylated nanobody NpD2 (AviTag-His9) (VHH)
VHH: QVQLVESGGGLAQPGGSLRLSCAASGFTLDYYSIGWFRQAPGKEREGVSCISSGGSTYYADSVKGRFAISSDNAKNTVYLQMNSLKPEDTAVYYCAADIMSCPGKYSAVADYWGQGTQVIVDS
notes: VHH NpD2 from an immunised llama; also called bNpD2; OROV Np Nb D2 BAP H9; not shown: AviTag, C-terminal, kept
B3: OROV Gc spike region (residues 482-894 of the M polyprotein), recombinant, strain BeAn19991 (domain or fragment, Oropouche virus strain BeAn19991)
chain: DEDCLSKDIKITYQELHNCIGPKIMGDTCVSKSELYSDLFSKNLVTEYDKKYFEPDTVNDQFNKIEFAQDAHRMILLERILYKTECEMLSLKKNSGPYNVAWRTYFKNHNIDLCSRHNYKMICQCINTHSMCKNTDIDYNKEIETYYKSNAAAYRADLNTIMDTLKTAFRGLTKVLIENYIEKDDSDALKALFSNITDSVQDNYQMIGILKFASKLLDINLGRSTRSAHHSIMTNEIPKSNPFTDYSYSNLNIKECMSPESLKCFKKRDSTPHTNHLLCKIDNKYKAFDWPEIETIQKGQKLCLGDSHCNLEFTAITADKIMSLTNCYKESFTAQPADMQAGIKKCSADEIGECTTLEDKTWPIIFCGGKYYYSDSKEHAKDGSINNYCLTNKCSEQRFPIHENWFKKCNWDK
notes: Gc spike region (head and stalk domains) of the M polyprotein of Oropouche virus strain BeAn19991, GenBank AJE24679.1, residues 482-894; also called Gc spike domain
B4: nanobody SpE8, His8-tagged (VHH)
VHH: QVQLVESGGGFVRAGDSLRLSCAASGRAFSTYAMGWFRQAPGKEREFVAGITLGSRITQYADSVKGRFTISRDNARQTMYLQMNNLQPEDTADYYCAARGQGSPPLRNRWSADDYNYWGQGLQVTVSS
notes: as the VHH of m21; also called OROV Gc Spike Nb E8 H8; not shown: His8, C-terminal, kept
B5: biotinylated nanobody NpE2 (AviTag-His9) (VHH)
VHH: QVQLVESGGGLVQAGDSLRLSCVASGFTPNPAVSWVRQAPGKDLEWVSSIYHGDITSYATSVKGRFTISRDNAKNTVYLQMNSLKPEDSAIYYCTKGDSRGQGTQVTVSS
notes: VHH NpE2 from an immunised llama; also called bNpE2; OROV Np Nb E2 BAP H9; not shown: AviTag, C-terminal, kept
B6: biotinylated nanobody NpE3 (AviTag-His9) (VHH)
VHH: QVQLVESGGGLVRPGGSLRLSCAASGFTFSNAYMTWIRQAPGKDLEWVSSIYYGDMTSYATSVKGRFTISRDNAKNTLYLQMNNLKPEDSAIYYCTKGDERGQGTQVTVSS
notes: VHH NpE3 from an immunised llama; also called bNpE3; OROV Np Nb E3 BAP H9; not shown: AviTag, C-terminal, kept
B7: AlexaFluor568-conjugated OROV NpE3 nanobody (Cys-His8) (VHH)
VHH: B6 VHH
notes: as the VHH of m13; also called OROV Np Nb E3 CH8
B8: nanobody SpB6, His8-tagged (VHH)
VHH: QVQLVESGGGLVQPGDSLRLSCAASGRTFSNYAMGWFRQAPGKEREKVAALSRSGTSTYYLDRVKGRFTISRDNTKNMVYLQMNSLEPEDTAVYYCAADPLFQNAAYHYSGQGTQVTVST
notes: as the VHH of m18; also called OROV Gc Spike Nb B6 H8; not shown: His8, C-terminal, kept
B9: biotinylated nanobody SpC7 (AviTag-His9) (VHH)
VHH: QVQLVESGGGLVQAGGSLRLSCAASGRTFSPNAMGWFRQAPGKEREFVSAISWSGGSTTYADSVKGRFTISRDNAKNTVSLQMNSLKPEDTAVYYCAADLEGMVVADRIWGQGTQVTVSS
notes: VHH SpC7 from an immunised llama; also called bSpC7; (biotinylated)bSpC7; not shown: AviTag, C-terminal, kept
B10: nanobody SpC7, His8-tagged (VHH)
VHH: B9 VHH
notes: as the VHH of m20; also called OROV Gc Spike Nb C7 H8; not shown: His8, C-terminal, kept
B11: biotinylated nanobody NpG1 (AviTag-His9) (VHH)
VHH: QVQLVESGGGLVQPGDSLRLSCAASGRTFTDYPMAWFRQAPGKEREFVTAINWSGGATYYADSVKGRFTISRDNTRNTVFLQMNSLKPEDTAVYYCAGGSGRLSYNMDKEYIYWGQGIQVTVSS
notes: VHH NpG1 from an immunised llama; also called bNpG1; OROV Np Nb G1 BAP H9; not shown: AviTag, C-terminal, kept
B12: nanobody SpC6, His8-tagged (VHH)
VHH: QVQLVESGGGSVQAGGSLRLSCAASGRTFSRYAMGWLRQAPGKEREFVAAITWSGGNTYYADSVKGRFTITRDDAKNTVYLQINNPKPEDTAVYYCAAGTQTGRIRDKGPSYWGQGTQVTVSS
notes: as the VHH of m19; also called OROV Gc Spike Nb C6 H8; not shown: His8, C-terminal, kept
B13: nanobody NpF2, His8-tagged (VHH)
VHH: QVQLVESGGGAVQAGGSLRLSCAASGRTFSSFPMGWFRQAPGKEREFIAAINWSGASKYYADSVKGRFAISRDNAKNTVYLQMNSLTPEDTAVYSCAAGSGRYGYTFSKEYTYWGQGTQVIVAS
notes: as the VHH of m14; also called OROV Np Nb F2 H8; not shown: His8, C-terminal, kept
B14: biotinylated nanobody NpF2 (AviTag-His9) (VHH)
VHH: B13 VHH
notes: VHH NpF2 from an immunised llama; also called bNpF2; OROV Np Nb F2 BAP H9; not shown: AviTag, C-terminal, kept
B15: OROV nucleoprotein (N) of strain TRVL, native, in virus stock (natural protein)
chain: T1 chain
notes: N protein of Oropouche virus strain TRVL (Anderson et al, 1961); also called OROV TRVL
B16: OROV nucleoprotein (N) of the 2023-4 epidemic isolate AM0088, native (natural protein)
chain: T1 chain
notes: also called OROV AM0088 N
B17: OROV nucleoprotein (N) in serum of patients with acute OROV infection (natural protein)
chain: T1 chain
notes: N protein of the Oropouche virus infecting the patients; also called OROV N protein

The target in experiment [1] is T1, OROV nucleoprotein (N), recombinant, …. The experiment can be described thus: ELISA; […], biotinylated nanobody 2 µg/mL, […], room temperature. The note with it: both partners purified.
Experiment [2] addresses T3, biotinylated nanobody-Fc fusion bFcSpC7 (C-terminal AviTag) (llama).
T3 construct: as the VHH of m20; also called OROV FcSpC7 BAP; not shown: Fc (human IgG1 hinge and Fc domains 2 and 3), C-terminal, kept; AviTag, C-terminal, kept
The experiment can be described thus: ELISA. The note with it: both partners purified.

Experiment [3] deals with T4, nanobody-Fc fusion FcSpB6 (llama).
T4 construct: as the VHH of m18; also called FcSpB6-HRP; OROV FcSpB6; not shown: Fc (human IgG1 hinge and Fc domains 2 and 3), C-terminal, kept
Kind of experiment: ELISA. The note with it: both partners purified.

Experiment [4] deals with B3. Kind of experiment: ELISA. The note with it: both partners purified.
Experiment [5] addresses T1, OROV nucleoprotein (N), recombinant, …. Kind of experiment: BLI; streptavidin biosensors loaded with biotinylated nanobodies, 1 µM OROV N with or without 25 µM competitor nanobody, 300 s association, 30 °C, PBS-T, Octet Red. The note with it: both partners purified.
Experiment [6] shares this target. The experiment can be described thus: ELISA. The note with it: both partners purified.
The target in experiment [7] is B15. The experiment can be described thus: ELISA; sandwich ELISA with nanobodies, […]. The note with it: one partner purified.
The target in experiment [8] is T2, OROV nucleoprotein (N) of strain …. Kind of experiment: ELISA; sandwich ELISA with nanobodies, […]. The note with it: one partner purified.
Experiment [9] shares this target. The experiment can be described thus: immunostaining of cells or tissue. The note with it: one partner purified.
The target in experiment [10] is B16. Kind of experiment: immunostaining of cells or tissue. The note with it: one partner purified.
Experiment [11] has as its target T5, OROV glycoprotein Gc of strain BeAn19991, native, in virus stocks and infected cells (Oropouche virus strain BeAn19991, UniProt A0A0B5CLT0).
T5 construct: On virus particles Gc stands with Gn; also called Gc spike; OROV BeAn19991
Kind of experiment: ELISA. The note with it: one partner purified.

For experiment [12], the target named is T6, OROV glycoprotein Gc of strain TRVL, native, in virus stock (Oropouche virus strain TRVL (stand-in: …, UniProt A0A0B5CLT0, strain)).
T6 construct: also called Gc spike; OROV TRVL
The experiment can be described thus: ELISA. The note with it: one partner purified.

The target in experiment [13] is T5, OROV glycoprotein Gc of strain …. The experiment can be described thus: ELISA; sandwich ELISA with nanobodies, […]. The note with it: one partner purified.
For experiment [14], the target named is T6, OROV glycoprotein Gc of strain TRVL, …. The experiment can be described thus: ELISA; sandwich ELISA with nanobodies, […]. The note with it: one partner purified.
In experiment [15] the target is B3. Kind of experiment: ELISA; […], biotinylated nanobody 2 µg/mL, […], room temperature. The note with it: both partners purified.
The target of experiment [16] is B15. Kind of experiment: ELISA. The note with it: one partner purified.
Experiment [17] deals with T2, OROV nucleoprotein (N) of strain …. Kind of experiment: ELISA. The note with it: one partner purified.
In experiment [18] the target is T7, biotinylated nanobody-Fc fusion bFcNpD2 (C-terminal AviTag) (llama).
T7 construct: as the VHH of m11; also called OROV FcNpD2 BAP; not shown: Fc (human IgG1 hinge and Fc domains 2 and 3), C-terminal, kept; AviTag, C-terminal, kept
The experiment can be described thus: ELISA. The note with it: one partner purified.

In experiment [19] the target is T8, nanobody-Fc fusion FcNpD2, HRP-conjugated (llama).
T8 construct: as the VHH of m11; also called OROV FcNpD2; not shown: Fc (human IgG1 hinge and Fc domains 2 and 3), C-terminal, kept
Kind of experiment: ELISA. The note with it: one partner purified.

On to B1, for which the binding result in experiment [1] is reported as “binds”.
The same measure, in the same setting: the same measure for B2: “binds”.
For the molecule B3, the binding result in experiment [2] and in [3] was “binds” in each case.
Regarding B4, the binding result in experiment [4] was “binds”.
B5: the binding result in experiment [5] was “binds”.
Consider B6, for which the binding result in experiment [6], in experiment [7] and in experiment [8] was “binds” each time.
As for B7, the binding result in [9] and in experiment [10] was “binds” in each case.
Take B8: the binding result in [11], in [4] and in [12] was “binds” in each case.
With B9, the binding result in [13], in experiment [14] and in experiment [15] was “binds” throughout.
For B10, the binding result in [4] is “binds”.
In the case of B11, the binding result in experiment [5] was “binds”.
On to B12, for which, in experiment [4], the binding result is reported as “binds”.
For B13, the binding result in [6], in experiment [16] and in experiment [17] was “binds” throughout.
Consider B14, for which, in experiment [5], the binding result was “binds”.
Regarding B15, the binding result in experiment [18] and in experiment [19] was “binds” in each case.
For the molecule B16, the binding result in experiment [18] and in experiment [19] was “binds” in each case.
Take B17: the binding result in experiment [18] and in [19] was “binds” throughout.
